Assay [1] deals with T1, human MDR1 (multidrug resistance protein 1) (UniProt P08183 1-1280). The assay can be described thus: FACS binding, 293T cells expressing human MDR1. A general note: A flow cytometer gives signals particle by particle.
The next assay deals with T2, cynomolgus CD47 (cynomolgus, UniProt A0A5F8AK49 19-323).
T2 chain: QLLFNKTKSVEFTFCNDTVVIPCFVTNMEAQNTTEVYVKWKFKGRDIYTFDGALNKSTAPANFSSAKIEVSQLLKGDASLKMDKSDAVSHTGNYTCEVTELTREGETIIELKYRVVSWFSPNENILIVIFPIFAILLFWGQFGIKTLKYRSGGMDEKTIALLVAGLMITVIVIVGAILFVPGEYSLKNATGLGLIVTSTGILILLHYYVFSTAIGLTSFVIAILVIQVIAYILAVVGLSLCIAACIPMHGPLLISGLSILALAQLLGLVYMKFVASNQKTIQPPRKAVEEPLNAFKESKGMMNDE
The assay can be described thus: FACS binding, C6-cKT14 cells.

The target in assay [2] is cynomolgus MDR1 (Macaca fascicularis). The assay can be described thus: FACS binding, 293T-cB1 cells.
Assay [3] has as its target T1, human MDR1 (multidrug resistance …). Put plainly: FACS binding, 293T-hB1 cells.
Assay [4] has as its target T3, human CD47 (human, UniProt Q08722 19-323). Put plainly: cell binding (flow cytometry, C6 cells).
The target of assay [5] is T3, human CD47. Put plainly: FACS binding, C6 cells expressing human CD47.

Positions count from the first letter of the chain named.

cynomolgus MDR1 (Macaca fascicularis), sequence (chain, as listed by the source): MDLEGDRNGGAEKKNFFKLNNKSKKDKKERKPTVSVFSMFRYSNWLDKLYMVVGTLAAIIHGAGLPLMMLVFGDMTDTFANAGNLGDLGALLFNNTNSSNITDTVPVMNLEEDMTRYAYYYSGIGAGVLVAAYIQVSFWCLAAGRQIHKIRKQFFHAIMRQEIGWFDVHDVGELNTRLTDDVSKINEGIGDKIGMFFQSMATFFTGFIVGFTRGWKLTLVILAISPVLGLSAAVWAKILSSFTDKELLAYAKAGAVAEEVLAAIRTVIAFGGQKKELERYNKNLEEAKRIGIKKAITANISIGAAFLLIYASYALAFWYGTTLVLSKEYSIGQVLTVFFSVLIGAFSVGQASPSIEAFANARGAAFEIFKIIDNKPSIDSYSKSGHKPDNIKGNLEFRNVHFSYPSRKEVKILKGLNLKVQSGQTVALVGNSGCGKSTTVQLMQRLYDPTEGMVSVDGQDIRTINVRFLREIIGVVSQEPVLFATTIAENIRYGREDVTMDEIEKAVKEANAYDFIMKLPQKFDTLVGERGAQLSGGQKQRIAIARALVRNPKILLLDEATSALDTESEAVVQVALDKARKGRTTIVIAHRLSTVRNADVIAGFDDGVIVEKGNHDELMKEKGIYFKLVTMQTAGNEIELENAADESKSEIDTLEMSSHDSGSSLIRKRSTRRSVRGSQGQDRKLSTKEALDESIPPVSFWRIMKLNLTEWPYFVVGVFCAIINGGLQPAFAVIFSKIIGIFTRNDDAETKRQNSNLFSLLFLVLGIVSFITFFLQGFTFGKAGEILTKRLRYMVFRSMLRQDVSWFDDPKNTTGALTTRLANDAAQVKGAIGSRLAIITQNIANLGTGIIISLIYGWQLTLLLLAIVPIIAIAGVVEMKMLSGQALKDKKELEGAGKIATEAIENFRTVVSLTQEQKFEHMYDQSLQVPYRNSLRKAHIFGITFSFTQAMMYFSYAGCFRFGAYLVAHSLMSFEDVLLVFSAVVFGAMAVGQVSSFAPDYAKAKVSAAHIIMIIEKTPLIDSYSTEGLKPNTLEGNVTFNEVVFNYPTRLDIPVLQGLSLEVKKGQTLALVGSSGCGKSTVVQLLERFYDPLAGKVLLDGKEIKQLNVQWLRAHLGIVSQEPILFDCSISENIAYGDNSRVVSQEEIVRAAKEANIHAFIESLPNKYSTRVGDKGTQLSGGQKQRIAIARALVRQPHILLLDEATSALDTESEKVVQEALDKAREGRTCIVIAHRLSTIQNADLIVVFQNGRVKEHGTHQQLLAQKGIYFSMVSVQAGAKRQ

B1: B1.188 (antibody, V domains shown)
VH: EVMLVESGGALVKPGGSLKLSCAASGFTFSNYAMSWVRQTPEKRLEWVATISSGGSYTYYPDSVKGRFTISRDNARNTLYLQMSSLRSEDTAMYYCARGYGNFAWFAYWGQGTLVTVSA
VL: DIQMTQSPLSLPVSLGDQASISCRSSQSIVHSTGNTYLEWYLQKPGQSPKLLIYKVSNRFSGVPDRFSGSGSGTDFTLKISRVEAEDLGVYYCFQGSHVPFTFGSGTKLEIK
Usually EC50 stands for the concentration that produces a half-maximal response. High values mean lower potency in that assay, low ones higher potency in that assay. In assay [1], B1 displayed an EC50 of 14.1 nM.

B2: 15D3DD/KT14KK/B1.27 (antibody)
chain 1: EVKVVESGGVLVRPGGSLKLSCAASGFTFSRYTMSWVRQTPEKRLEWVATISSGGGNTYYPDSVKGRFTVSRDNAMSSLYLQMSSLRSEDTALYYCARYGAGDAWFAYWGQGTLVTVSS
chain 2: QVQLVQSGAEVKKPGASVKVSCKASGYTFTNYNMHWVRQAPGQRLEWMGTIYPGNDDTSYNQKFKDRVTITADTSASTAYMELSSLRSEDTAVYYCARGGYRAMDYWGQGTLVTVSS
chain 3: B1 VL with I2V, Q3L, M4L, S7T, S28N, E39D, Y92F, V99I, F101R, S105G
B2 showed a 50% effective concentration (EC50) with cynomolgus CD47 of 36 nM.

B3: B1.198 (antibody, V domains shown)
VH: EVQLVESGGALVKPGGSLKLSCAASGFTFSNYAMSWVRQTPEKRLEWVATISSGGSYTYYPDSVKGRFTISRDNAKNTLYLQMSSLRSEDTALYYCAKYSNYGRFAYWGQGTLVTVSA
VL: B1 VL with I2V, Q3V, S7T, H31D, T33N, S61F, F101Y, S105G
On to B3, for which a half-maximal effect in assay [1] (EC50) was put at 14.8 nM.

B4: B1.207 (antibody, V domains shown)
VH: B3 VH with E1G, N77T, S85G, Y107S, A118T
VL: B1 VL with I2V, Q3L, S7T, T33S, K50R, S61F, F67I, K79R, F101Y, S105G
In assay [1], B4 yielded a concentration giving a half-maximal response (EC50) of 4.3 nM.

B5: B1.99 (antibody, V domains shown)
VH: B1 VH with M3Q, K43R, R76K, R87I, M93L, A97T, Q111H
VL: DVVMTQTPLSLPVSLGDQVSISCRSSQSIVHSYGSTYLEWYLQKPGQSPKLLIYKVSNRFSGVPDRFSGSGSGTDFTLKISRVEAEDLGVYFCFQGSHIPYTFGGGTKLELK
For the molecule B5, in assay [1], the half-maximal effective concentration (EC50) was determined as 88.2 nM.

B6: B1.30 (antibody, V domains shown)
VH: EVMLVESGGGLVKPGGSLKLSCAASGFTFSSYTMSWVRQTPEKRLEWVATISSGGGNTYYPDSVKGRFTISRDNAKNNLYLQMSSLRSEDTALYYCARYYRYDAWFAYWGQGTLVTVSA
VL: B1 VL with I2V, Q3L, S7T, A85T, F101R, S105G
For the molecule B6, a half-maximal effect in assay [1] (EC50) was put at 8.5 nM.

B7: B1.85 (antibody, V domains shown)
VH: B1 VH with M3Q, A33G, M34V, G54S, S63I, K65R, R76K, M93F
VL: B1 VL with S81N, F101Y, S105G
On to B7, for which, in assay [1], the concentration giving a half-maximal response (EC50) stood at 9.2 nM.

B8: B1.27 (antibody, V domains shown)
VH: EVKLVESGGGLVKPGGSLKLSCAASGFTFSSYTMSWVRQTPEKRLEWVATVSSGGGNTYYPDSVKGRFTISRDNAKNNLYLQMSSPRSEDTALYYCARYGNYGWFTYWGQGTLVTVSS
VL: B5 VL with V19A, S28N, Y33T, S35N, E39D, Y101R, L111I
Turning to B8, it took 34 nM to reach a half-maximal effect in assay [1] (EC50).

B9: B1.223 (antibody, V domains shown)
VH: B3 VH with Q3K, N77T, S85G, Y99F, Y107S, A118S
VL: B1 VL with T5I, T33S, K50R, S61F, F67I, K79R, F101Y, S105G, I111L
In the case of B9, the EC50 in assay [1] was found to be 4.6 nM.

B10: 15D3DD/KT14KK/225v1 (antibody)
chain 1: B2 chain 1
chain 2: B2 chain 2
chain 3: B1 VL with I2V, Q3V, S7T, S25F, T33N, S61F, G96A, V99F, F101R, S105G
As for B10, in the assay with cynomolgus CD47, the concentration for a half-maximal effect (EC50) is 37 nM.

B11: B1.178 (antibody, V domains shown)
VH: EAQLVESGGALVKPGGSLKLSCSASGFTFSNYAMSWVRQTPEKRLEWVATISSGGTNTYYPGSVKGRFTIARDNAKNTLYLLMSSLRSEDTALYFCARYSNLAWFASWGQGTLVTVSA
VL: B1 VL with I2V, Q3V, S7T, T33N, L51F, Y54S, V90I, F101Y, S105G
In assay [1], B11 had a half-maximal effective concentration (EC50) of 16.6 nM.

B12: B1.39 (antibody, V domains shown)
VH: B8 VH with K3M, P86L, S118A
VL: B1 VL with I2V, Q3L, S7T, V30L, T33N, G69A, V90I, F101R, S105G
B12 returned a concentration for a half-maximal effect (EC50) in assay [1] of 14.2 nM.

B13: 15D3DD KT14KK B1.89v1 LC (bispecific antibody)
heavy 1: not shown
heavy 2: not shown
VL: B1 VL with I2V, Q3L, S7T, S28T, T33N, N58K, G96A, V99F, F101R, S105G
In the assay with cynomolgus CD47, B13 returned an EC50 of 21 nM.

B14: 15D3DD/KT14KK/VL6.CDR3mod (antibody)
chain 1: B2 chain 1
chain 2: B2 chain 2
chain 3: DVLMTQTPLSLPVSLGDQASISCRSSQSLVHSNGNTYLEWYLQKPGQSPKLLIYKVSNRFSGVPDRFSGSGSGTDFTLKISRVEAEDLGVYYCFQGSHFPRTFGGGTKLEIKRTVAAPSVFIF
Molecule B14 gave a concentration giving a half-maximal response (EC50) with cynomolgus CD47 of 44 nM.

B15: B1.261 (antibody, V domains shown)
VH: QVQLKESGPGLVAPSQSLSITCTVSGFSLTSYGVHWVRQPPGKGLEWLVVIWSDGSTTYNSALKSRLSISKDNSKSQVFLKMNSLQIDDTAMYYCARHGRWLLQRGGAMDYWGQGTSVTVSS
VL: DVVMTQAPKFMSTSVGDRVSVTCRASQNVGSYIAWYQQKLGQSPKALIYSASYRCSGVPDRFTGSGAGTDFTLTIRNVQSEDLAEYFCQQYNSYPLTFGGGTKLEIK
As a reminder, the Kd is the free concentration of one partner at which half of the binding sites on the other are occupied at equilibrium, for simple one-to-one binding. A higher Kd goes with lower affinity. Consider B15, for which the Kd in assay [2] was found to be 371 nM; in assay [3], 188 nM.

B16: B1.201 (antibody, V domains shown)
VH: B3 VH with V12M, L20F, S30T, Y57N, P61S, N77T, S85G, Y99F, Y102F, Y107S
VL: DVLMTQTPLSLPVSLGDQASISCRFSQSIVHSSGNTYLEWYLQKPGQSPRLLIYKVSNRFFGVPDRISGSGSGTDFTLRISRVEAEDLGVYYCFQGSHVPYTFGGGTKLEIK
Take B16: the midpoint of the response in assay [1], the EC50, lay at 8 nM. This lies in the single-digit nanomolar range.

B17: KT14.5F9hu scFv-B1.261.hu1 (bispecific antibody)
scFv: not shown
heavy: EVQLQESGPGLVKPSETLSLTCTVSGFSLTSYGVHWVRQPPGKGLEWLVVIWSDGSTTYNSALKSRLTISKDNSKNQVSLKLSSVTAADTAVYYCARHGRWLLQRGGAMDYWGQGTMVTVSSASTKGPSVFPLAPSSKSTSGGTAALGCLVKDYFPEPVTVSWNSGALTSGVHTFPAVLQSSGLYSLSSVVTVPSSSLGTQTYICNVNHKPSNTKVDKRVEPKSCDKTHTCPPCPAPELLGGPSVFLFPPKPKDTLMISRTPEVTCVVVDVSHEDPEVKFNWYVDGVEVHNAKTKPREEQYNSTYRVVSVLTVLHQDWLNGKEYKCKVSNKALPAPIEKTISKAKGQPREPQVCTLPPSREEMTKNQVSLSCAVKGFYPSDIAVEWESNGQPENNYKTTPPVLDSDGSFFLVSKLTVDKSRWQQGNVFSCSVMHEALHNHYTQKSLSLSPGK
light: DVQMTQSPSSLSASVGDRVTITCRASQNVGSYIAWYQQKPGKSPKALIYSASYRSSGVPSRFSGSGAGTDFTLTISSLQPEDFATYFCQQYNSYPLTFGGGTKLEIKRTVAAPSVFIFPPSDEQLKSGTASVVCLLNNFYPREAKVQWKVDNALQSGNSQESVTEQDSKDSTYSLSSTLTLSKADYEKHKVYACEVTHQGLSSPVTKSFNRGEC
Molecule B17 came in with a 50% effective concentration (EC50) in the assay with human CD47 [4] of 2.7 nM.

B18: KT14.B6H12hu scFv-B1.261.hu1 (bispecific antibody)
scFv: not shown
heavy: B17 heavy
light: B17 light
On to B18, for which, in the assay with human CD47 [4], it took 26 nM to reach a half-maximal effect (EC50).

B19: B1.261.huH2(VH3)-huL1 (antibody, V domains shown)
VH: EVQLVESGGGLIQPGGSLRLSCAVSGFSLTSYGVHWVRQPPGKGLEWLVVIWSDGSTTYNSALKSRLTISKDNSKNTVYLQMNSLRAEDTAVYYCARHGRWLLQRGGAMDYWGQGTMVTVSS
VL: DVQMTQSPSSLSASVGDRVTITCRASQNVGSYIAWYQQKPGKSPKALIYSASYRSSGVPSRFSGSGAGTDFTLTISSLQPEDFATYFCQQYNSYPLTFGGGTKLEIK
For the molecule B19, the equilibrium dissociation constant (Kd) in assay [2] worked out at 114 nM; in assay [3], 50 nM.

B20: KT14.5F9hu scFv-B1.28.hu13 (bispecific antibody)
scFv: not shown
heavy: EVQLVESGGGLVKPGGSLRLSCAASGFTFGLYTMSWVRQAPGKGLEWVATISSGGSNTYYPDSVKGRFTISRDNAKNSLYLQMNSLRAEDTAVYYCARYYRYDAWFAYWGQGTLVTVSSASTKGPSVFPLAPSSKSTSGGTAALGCLVKDYFPEPVTVSWNSGALTSGVHTFPAVLQSSGLYSLSSVVTVPSSSLGTQTYICNVNHKPSNTKVDKRVEPKSCDKTHTCPPCPAPELLGGPSVFLFPPKPKDTLMISRTPEVTCVVVDVSHEDPEVKFNWYVDGVEVHNAKTKPREEQYNSTYRVVSVLTVLHQDWLNGKEYKCKVSNKALPAPIEKTISKAKGQPREPQVCTLPPSREEMTKNQVSLSCAVKGFYPSDIAVEWESNGQPENNYKTTPPVLDSDGSFFLVSKLTVDKSRWQQGNVFSCSVMHEALHNHYTQKSLSLSPGK
light: EVVLTQSPATLSLSPGERATLSCRSSQNIVHSTGNTYLDWYQQKPGQSPRLLIYKVSNRFSGVPARFSGSGSGTDFTLTISSLEPEDFAVYYCFQGSHIPRTFGGGTKLEIKRTVAAPSVFIFPPSDEQLKSGTASVVCLLNNFYPREAKVQWKVDNALQSGNSQESVTEQDSKDSTYSLSSTLTLSKADYEKHKVYACEVTHQGLSSPVTKSFNRGEC
In the assay with human CD47 [5], B20 had a half-maximal effective concentration (EC50) of 1.4 nM.
